± gives the uncertainty stated by the source.
Test: amyloid nucleation score (Sup35N fusion, yeast selection) (log enrichment); library NNK2; higher = more nucleation; inactive = no reads after selection
Procedure, shortened: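 DiMSum was used to calculate nucleation scores as log enrichment of output over input reads, centred on the mode score of non-aggregating sequences. Sequences with fewer than 100 input reads were not scored. Input and output came from Illumina sequencing of plasmid inserts in psi-negative yeast expressing peptides of 20 random codons fused to Sup35N, induced 24 hours with 100 μM copper sulfate and then grown 7 days at 30°C on medium lacking adenine and uracil.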

Substance | amyloid nucleation score
DSDHFA | -1.58 ± 0.78
DSEGSA | inactive
DSEPVYYTVNFNQLLSRLYY | 1.52 ± 0.32
DSFIVYVR | -0.072 ± 0.63
DSGCKFAAPCSVYPLFLFDM | -0.788 ± 1.1
DSGRCFSFKWFCYFQHHHEV | 2.18 ± 0.17
DSHADAISVAVKVGRWRYND | 1.53 ± 0.23
DSILLSLCPTNCFKN | -0.148 ± 0.63
DSLEGVSCSLMSLSTLTGEC | 0.143 ± 0.54
DSNTPHASMRYISFKRFFFV | -0.107 ± 1
DSPQHHECIMVWL | 4.38 ± 0.064
DSSGVGTRLDCKLCFENLID | -0.952 ± 0.47
DSSIAYFIGVLASIGADEDR | 6.452 ± 0.061
DSSKSMCLICSNCILNFSEM | 8.698 ± 0.049
DSSSCYMYLCTGNYPDNFNF | 4.5 ± 0.084
DSVGMVRTLVWDWGQATNGR | 0.953 ± 0.51
DTERRC | -1.06 ± 0.61
DTFPKHSQHAVVKRPQIYID | -1.04 ± 1.1
DTGSGAPVIKYCVAVPRSFT | 0.306 ± 0.57
DTPCSYISCMCNTIL | 9.453 ± 0.03
DTRFEVNAFTIGNRYATNGS | -0.869 ± 0.41
DVACNTRKPCS | -0.908 ± 0.78
DVCGD | -0.566 ± 0.48
DVDEVW | -1.09 ± 0.61
DVGSPWLNYSSFFIFWSTIS | -1.02 ± 1.1
DVHHRIIMMLLGGFWYACGY | -0.428 ± 0.27

Substance | amyloid nucleation score
DVIYNERTYLLFLTPHTMVV | -0.991 ± 0.63
DVLEIFVMTRGIVEVNPDSN | 8.665 ± 0.031
DVLRLTQTANLLCSSALRSA | 1.07 ± 0.12
DVLWTLQLLFDPVGLCLAMK | 0.391 ± 0.41
DVSLNRGVRPF | -0.123 ± 0.76
DVSNLWFTNFCGFWGKYVVK | inactive
DVVMG | 0.701 ± 0.51
DVVNVSYGPVITFMSVFRVS | 7.556 ± 0.051
DWCTAAGDEMDMVVGGKVPN | 0.427 ± 0.34
DWCVNVIERSGDTLEVMCNF | 0.817 ± 0.8
DWFCVHKV | 0.058 ± 1
DWFVSGTSDRVVGNSAGGGV | 0.589 ± 0.66
DWLNSVFFLPFKCGLCVLRA | 0.06 ± 0.4
DWQRRFAQIMIRGFNVILVT | 0.097 ± 1.1
DYCLSSICFLIDVGESFERG | 0.171 ± 0.44
DYFSNLIVDLTFLSGSFVFV | -0.578 ± 1.1
DYGEGLPNSMCCLVSFQ | 0.057 ± 1.1
DYLIAIQLYDFYVHGLIKYR | -0.853 ± 0.78
DYSLSWVRYSFAYRGVSKDG | 0.061 ± 0.12
DYTNSTAEGFTF | inactive
DYVCGGGFLTKDVSACGLYV | 0.685 ± 0.46
DYVRCVDLSN | -0.863 ± 0.63
DYWFLCAICLWVFTGMYLVE | 0.01 ± 0.28
EACLNGAA | 0.638 ± 0.18
ECLKYRYSFFNWTSTSVFHA | -0.435 ± 0.79
ECLTLFRTGRM | 5.306 ± 0.037

Substance | amyloid nucleation score
ECNTSVLSTWARDLVSPVLT | 4.3 ± 0.053
ECRRF | 2.78 ± 0.12
EDGGLCSASVRLYG | 0.379 ± 0.33
EDLYFTTGMLAKKCGPQGMG | 5.04 ± 0.069
EDRVCAYLNRKYCRYLGHSM | 1.29 ± 0.35
EEWTVNCC | 5.766 ± 0.046
EFAELSSRQRFWHMFV | 1.04 ± 0.34
EFVISKNSVPSPCRCW | 0.382 ± 0.8
EFWANRYGNHPLLGIHHCSP | 0.135 ± 0.77
EGCHVGNLDCLPSETATVSV | 0.143 ± 0.79
EGIVSMFVIRVYV | 0.63 ± 0.46
EGRHNV | inactive
EGSNNVVVRDSAVYQVSGEM | -0.375 ± 1.1
EHHYI | -0.202 ± 1
EHVVSSRRLYLQGDILLNSQ | inactive
EICLDAITVVPLHGSIRLTV | 0.764 ± 0.25
EIEEYWGV | -0.125 ± 0.63
EIFAGICSSLAFKGHGRKSG | 6.29 ± 0.065
EILLR | 0.269 ± 0.8
EILRSGMSCIWVLYDFIGI | -0.437 ± 1
EISAMVAL | -1.06 ± 0.54
EIVLFFCPVVKCME | 3.08 ± 0.098
EIVQFLLHMYGSVREAMVAL | -1.05 ± 0.56
EKIFPLMGVKN | inactive
EKNTMDF | 1.64 ± 0.19
EKRMNLVHYREYLPPFKRSN | -0.403 ± 1

Substance | amyloid nucleation score
ELCPAT | 0.219 ± 0.3
ELCRCITFGLVCTFACYWVC | 0.592 ± 0.2
ELLQVEYNHHDSKEFMLVMI | 0.239 ± 0.43
ELPGPHSGVTPPACEWSTHP | 0.422 ± 0.24
ELRISPPDNRLWDPQ | 0.183 ± 1
ELTSLQVMLSNDEMMGGRVN | 0.064 ± 0.3
ELWRYDINIERYKSTRSVYH | 3.08 ± 0.055
EMGVGSYSGRCATSGGSNLQ | 0.929 ± 0.27
EMSVRPGVSRKIWS | 0.43 ± 0.49
ENDMLTYYSLLFYWIKIVSY | inactive
ENGAKVLVIVYKGYPLVPWV | -0.089 ± 0.46
ENKILMGAWEVFWTYSEHPW | inactive
ENYFCSYWFCFSWALG | 6.362 ± 0.062
EPDELPYLLKASLMSLGHGP | 4.64 ± 0.073
EPGRRSYSWFCITRVFVMR | -0.171 ± 1
EPLVKYPEYSFPSMVCMPSI | -0.478 ± 0.64
EQIGQ | 2.92 ± 0.089
EQRGLASCLTIHHSRWCYTK | 0.025 ± 0.33
ERFRIGTCSIRCSYILGLRR | -0.898 ± 0.54
ERSNSRVVDL | -0.539 ± 0.44
ERVQMFQIRVQSAYVVFGVS | 4.75 ± 0.077
ESADQWAVTMVGRHFYLVLR | 0.294 ± 1.1
ESFLDINGVLRLRRLYVQSQ | 0.587 ± 0.56
ESMGGEYQGGVFVG | 0.448 ± 0.38
ESQNECVGYNMLDCMKLSRG | 4.052 ± 0.037
ESSVITGLWHV | -0.081 ± 0.8

Substance | amyloid nucleation score
ESSYVRIQ | 0.13 ± 0.4
ESTLRVMGRKAISSGLMCIA | 0.269 ± 0.28
ESTWVCIFSRVLYGGYCGDQ | 0.244 ± 0.33
ETHYPPQ | 0.033 ± 0.32
ETLPLNIILYACGEPHWFLL | -0.407 ± 0.29
ETMNA | 1.38 ± 0.16
ETRRSYV | 0.563 ± 0.38
ETVLFYSV | inactive
EVAEQH | 0.426 ± 0.16
EVELALGGSELGGVVSWLM | 1.77 ± 0.27
EVHLEVLTNCKKV | 5.05 ± 0.051
EVIANWLENGYYVSKTVFVD | -0.026 ± 0.29
EVLARR | 0.611 ± 0.46
EVMCDAKLAGCVTSRPWLSR | 0.925 ± 0.34
EVMEFSNDFSRIFFAFKGFV | -0.665 ± 0.78
EVNRAPNVSIVYRRNSGTAD | -0.154 ± 0.4
EVRSALYAYEGYLRVFRSFR | 0.819 ± 0.46
EVSQGLDSILYLWYDEWDSA | -0.608 ± 0.31
EVVLSAILQHYMSFVSGDDL | -0.201 ± 0.41
EWCQFIR | -0.199 ± 0.19
EWCQKGSAEIRASRCQ | 0.58 ± 0.18
EWVYFLCSFHPSIDFLNISD | 5.62 ± 0.076
EYMAITSFQKLFPHWFLSTE | inactive
EYRLFCCWE | 6.04 ± 0.072
EYSMHTWCRYKEDFSRGASG | 2.98 ± 0.096

Reference: the supplement of paper PMC12042874
